The values that follow come from US20220226469A1 (ARCH ONCOLOGY, published 2022).

In experiment [1] the target is T1, human SIRPα expressed on cells (THP-1 cells, human monocyte-derived macrophages, dendritic cells) (human, UniProt P78324 31-504).
T1 construct: Endogenous SIRPα of cell line or donor cells; also called cell-expressed SIRPα; macrophage expressed SIRPα
Put plainly: flow cytometry on human monocyte-derived macrophages; apparent Kd. How it is done:
(§1) Human CD14⁺ monocytes, isolated from peripheral blood mononuclear cells (Astarte Biologics) were differentiated in vitro for seven days into macrophages or dendritic cells. For macrophage differentiation, monocytes were incubated in AIM-V media (Life Technologies) supplemented with 50 ng/ml M-CSF (Biolegend) for seven days. For dendritic cell differentiation, monocytes were incubated in AIM-V media (Life Technologies) in the presence of 10% human AB serum (Valley Biomedical), 200 ng/ml GM-CSF (Biolegend) and 50 ng/ml IL-4 (Biolegend). The cells were incubated for 1 h at 37° C., 5% CO₂ with serial dilutions of SIRP mAbs in binding buffer containing 1 mM EDTA (Sigma Aldrich) and 1% FBS (Biowest) in PBS (Corning). The cells were then washed and stained for 45 min under the same conditions with donkey anti-mouse IgG fluorescein isothiocyanate (FITC)-linked secondary antibody (Jackson ImmunoResearch Laboratories). The cells were subsequently stained with anti-CD14 or anti-CD11c conjugated to Alexa Fluor 647 fluorophore (Life Technologies and Biolegend, respectively) for 30 min on ice, washed and analyzed by flow cytometry (Attune, Life Technologies). Binding was assessed as the median FITC fluorescence intensity of CD14⁺ or CD11c⁺ cells, subtracted from cells stained with the secondary antibody only.

For experiment [2], the target named is T1, human SIRPα expressed on cells (THP-1 …). Put plainly: flow cytometry on human monocyte-derived dendritic cells; apparent Kd. How it is done:
as §1

For experiment [3], the target named is T2, HIS tagged human SIRPα (ACRO #SIG-H5225) (human, UniProt P78324 31-373).
T2 construct: Bought protein; also called Histidine (HIS) tagged human SIRPα; not shown: histidine tag
T2 sequence (P78324 31-373 limits assumed): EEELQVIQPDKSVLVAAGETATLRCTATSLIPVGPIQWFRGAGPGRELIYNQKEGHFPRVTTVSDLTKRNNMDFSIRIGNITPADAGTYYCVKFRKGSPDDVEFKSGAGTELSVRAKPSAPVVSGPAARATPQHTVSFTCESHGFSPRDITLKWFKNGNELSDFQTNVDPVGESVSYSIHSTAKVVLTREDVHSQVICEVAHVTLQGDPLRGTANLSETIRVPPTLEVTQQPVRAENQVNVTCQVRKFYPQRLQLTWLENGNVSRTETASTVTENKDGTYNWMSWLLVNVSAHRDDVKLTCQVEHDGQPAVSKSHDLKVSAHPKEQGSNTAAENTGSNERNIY
Put plainly: blocking ELISA on plate-coated HIS tagged human SIRPα; competitor Fc tagged human CD47 (250 ng/ml). How it is done: HIS tagged human SIRPα (ACRO #SIG-H5225) is adsorbed to high-binding microtiter plates at a concentration of 1 μg/ml diluted in PBS overnight at 4° C. The coating solution is removed, the wells are washed and then blocked with […] in PBS containing 0.5% Tween 20 (PBST) for 60 minutes at room temperature while shaking. Blocking solution is removed, the wells are washed and incubated for 60 minutes at room temperature while shaking with anti-SIRP mAbs diluted in PBST at a starting concentration of 30 μg/ml and reducing the concentration by 3-fold serial dilutions. Wells are washed three times with PBST and incubated for 60 minutes at room temperature while shaking with an FC tagged human CD47 (ACRO #CD7-H5256) at a concentration of 250 ng/ml in PBST. Wells are washed three times with PBST and incubated for 60 minutes at room temperature while shaking with an HRP labeled donkey anti-mouse or anti-human secondary antibody (Jackson ImmunoResearch Laboratories) diluted 1:20,000 in PBST. The wells are washed and then incubated with peroxidase substrate and the absorbance at 450 nm determined. The IC₅₀ was calculated using a non-linear fit model (GraphPad Prism).

T1 sequence (P78324 other isoform, or with tags, fused parts or gaps): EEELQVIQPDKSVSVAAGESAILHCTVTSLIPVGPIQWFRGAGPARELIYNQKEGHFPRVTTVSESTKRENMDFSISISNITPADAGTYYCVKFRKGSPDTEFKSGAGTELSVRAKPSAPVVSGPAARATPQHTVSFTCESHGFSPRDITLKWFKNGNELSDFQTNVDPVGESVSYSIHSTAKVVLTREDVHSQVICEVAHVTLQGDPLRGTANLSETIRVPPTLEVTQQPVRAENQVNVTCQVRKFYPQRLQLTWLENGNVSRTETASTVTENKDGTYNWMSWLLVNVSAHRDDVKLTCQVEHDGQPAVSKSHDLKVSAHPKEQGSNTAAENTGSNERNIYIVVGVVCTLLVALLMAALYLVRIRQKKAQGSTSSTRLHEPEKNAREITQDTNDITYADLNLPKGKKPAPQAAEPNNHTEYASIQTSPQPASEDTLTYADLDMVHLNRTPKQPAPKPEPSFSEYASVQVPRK

B1: SIRP9 (antibody, V domains shown)
VH: EVQLQESGAELVRPGASVKLSCKALGYTFTDYEIHWVKETPVYGLEWIGDIHPGSGGTANNQKFKGKATLTADKSSNTAYMELSSLTSEDSAVYYCTRAVSGYYAMDYWGQGTSVTVSS
VL: DIQMTQSSSSFSGSLGDRLTINCKASEDIYDRVAWYQQKPGNAPRLLISGTASLETGVLSRFSGSGSGKDYTLSINGLQAEDVATYYCQQYWTTPWTFGGGTKLEIK
notes: anti-mouse secondary
With B1, the Kd in experiment [1] was 0.0937 nM.

B2: KWAR-23 (antibody, V domains shown)
VH: EVQLQQSGAELVKPGASVKLSCTASGFNIKDYYIHWVQQRTEQGLEWIGRIDPEDGETKYAPKFQDKATITADTSSNTAYLHLSSLTSEDTAVYYCARWGAYWGQGTLVTVSA
VL: QIVLTQSPAIMSASPGEKVTLTCSASSSVSSSYLYWYQQKPGSSPKLWIYSTSNLASGVPARFSGSGSGTSYSLTISSMEAEDAASYFCHQWSSYPRTFGAGTKLELKR
For B2, the Kd in experiment [2] was 0.0234 nM.

B3: SIRP2 (antibody, mouse IgG1, kappa, V domains shown)
VH: EVKLVESGGGLVQPGGSLKLSCAASGFSFSGCTMSWIRQTPERRLEWVAYISNGGDITYYPDTVKGRFTISRDNAKNSLYLQMSSLKSEDTAMYYCARLDGYYYAMDFWGQGTSVTVSS
VL: DILLTQSPAILSVSPGERVSFSCRASQSIGTSIHWYQQRTNGSPRLLIKYGSESISGIPSRFSGSGSGTDFTLSINSVESEDIADYYCQQSNTWPLTFGDGTKLELKR
notes: Hybridoma-derived mouse mAb
The molecule B3 yielded a half-inhibitory concentration (IC50) in experiment [3] of 3 nM.

B4: SIRP7 (antibody, V domains shown)
VH: EVQLQQSGPELVKPGASVKMSCRASGYTFSTYVMHWIKHRPGQGLEWIGYINPNNDGPNYNEKFKGKATLTSDISSSTAYMELSSLTSEDSAVYFCSRWDSYNSAAGFAYWGHGTLVTVSA
VL: EIVLTQSPTTMAASPGEKITIICSASSSISSNFLHWYQQKPGFSPRFLIYRTSILASGVPTRFSGSGSGTSYSLTIDTMEAEDVATYYCQQGSGLPLTFGSGTKLEIK
B4 registered an IC50 in experiment [3] of 1.1 nM.

B5: SIRP4 (antibody, V domains shown)
VH: EVQLQQSGPDLVKPGASVKISCKASGYSFTDYFLNWVKQSHGKSLEWIGRINPYNGDSFINQNFRDKATLTVDKSSTTAHMDLLSLTSEDSAIYYCGRGGYDGYFIAYFDYWGQGSLVTVSA
VL: DIKLTQSQSSMYSSLGQRVTITCKASQDINSHLSWFQEKPGKSPKTLIYRANRLADGVPSRFSGSGSGQDYFLTISSLEYEDVGIYYCLQYDEFPYTFGGGTKLEIK
notes: anti-mouse secondary
Consider B5, for which, in experiment [3], the IC50 was found to be 0.71 nM. Besides, the Kd in experiment [1] stood at 0.0207 nM; in experiment [2], 0.05 nM.

B6: SIRP5 (antibody, V domains shown)
VH: QVQLQQSAAELARPGASVKMSCKASGYTFTSYTMHWVKQRPGQGLEWIGYINPTIGYTEYNQKFKDKTTLTADKSSSTAYMQLSSLTSEDSAVYYCVRLVITSVLGRAMDYWGQGTSVTVSS
VL: QIVLTQSPALMSASPGEKVTMTCSASSSVSYMYWFQQKPRSSPKPWIYLTSNLASGVPARFSGSGSGTSYSLTISSMEAEDAATYYCQQWSGNPFTFGSGTKLEIK
On to B6, for which the Kd in experiment [2] is 0.77 nM.

B7: SIRP3 (antibody, mouse IgG1, kappa, V domains shown)
VH: EVQLQQSGPEVVKPGASVKMSCKASGYTFTSYVMHWVKQKPGQGLEWIGYINPYNDGPKYNEKFKGKATLTSDKSSSTAYMELSSLTSEDSAVYFCARWDYFNSASGFAFWGQGTLVTVSA
VL: EIVLTQSPTTMAASPGEKITIICSASSIIGSDFLHWYQQRPGFSPKFLIYRTSILASGVPTRFTGSGSGTSYSLTIGTMEAEDVATYYCQQGSGLPLTFGSGTKLEMKR
notes: Hybridoma-derived mouse mAb
In experiment [3], B7 displayed an IC50 of 2.7 nM. In addition, the Kd in experiment [2] came to 0.00347 nM.
